This experiment has as its target SPNct, C-terminal glycohydrolase domain of Streptococcus pyogenes beta-NAD+ glycohydrolase (SPN), residues 191-451 (Streptococcus pyogenes). The experiment can be described thus: crystal structure.

B1: Immunity factor for SPN (IFS), full length, residues 1-161 (natural protein)
chain: MYKVPKGLEHYQKMFQKEVTVNDLKKYLIGSDKEYRITRRDSYMGDISDPEVILEYGVYPAFIKGYTQLKANIEEALLEMSNSGQALDIYQAVQTLNAENMLLNYYESLPFYLNRQSILANITKALKDAHIREAMAHYKLGEFAHYQDTMLDMVERTIETF
modifications: selenomethionine in place of methionine in the derivative used for MAD phasing
As a reminder, the stoichiometry N is the number of molecules, sites or subunits per partner or assembly. For the molecule B1, the stoichiometry N amounted to 1.

Values taken from PMC3056158.
